Results: publication PMC4067145 (Biochemistry, 2014)

Assays:
[1] = target: T1, full-length human U2B″ protein (human, UniProt P08579 1-225); test: other fluorescence titration
[2] = target: T2, full-length human U1A protein (human, UniProt P09012 1-282); test: other fluorescence titration
[3] = target: T1, full-length human U2B″ protein; test: ITC
[4] = target: T2, full-length human U1A protein; test: ITC
[5] = target: T2, full-length human U1A protein; test: ITC; remark: listed apart in the source
[6] = target: T1, full-length human U2B″ protein; test: ITC; remark: listed apart in the source
[7] = target: T1, full-length human U2B″ protein; test: other fluorescence titration; remark: listed apart in the source

T1 sequence (P08579 whole entry): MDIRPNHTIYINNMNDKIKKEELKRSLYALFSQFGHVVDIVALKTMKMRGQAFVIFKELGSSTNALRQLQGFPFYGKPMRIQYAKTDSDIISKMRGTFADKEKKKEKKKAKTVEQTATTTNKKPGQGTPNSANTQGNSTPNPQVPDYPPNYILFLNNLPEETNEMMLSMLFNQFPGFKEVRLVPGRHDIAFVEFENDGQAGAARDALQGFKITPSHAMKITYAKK

- Kd [1]: 5.1 nM
- Kd [2]: 1400 nM
- Kd [3]: 6 nM
- Kd [4]: 830 nM
- Kd [5]: 1000 nM
- Kd [6]: 5.9 nM
- Kd [7]: 4.4 nM
B1: human U2A′ protein, truncated form that included the first 180 amino acids (LRR domain) (domain or fragment)
chain: MVKLTAELIEQAAQYTNAVRDRELDLRGYKIPVIENLGATLDQFDAIDFSDNEIRKLDGFPLLRRLKTLLVNNNRICRIGEGLDQALPCLTELILTNNSLVELGDLDPLASLKSLTYLSILRNPVTNKKHYRLYVIYKVPQVRVLDFQKVKLKERQEAEKMFKGKRGAQLAKDIARRSKT
